Where no end group is shown, it is not given here.
Key:
[1] = molecular target: T1, Anti-PSMA Fab; test: clonal phage ELISA; biotinylated PSMA Fab on neutravidin plate, blocking buffer alone; anti-M13 HRP detection;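 also: crude clonal phage supernatants added without washing to wells pretreated with blocking buffer with or without PSMA antigen, short incubation, then washed before detecting bound phage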
T1 construct: also called 006 PSMA Fab
Procedure: (§1) Clonal phage were harvested as crude supernatants and screened via standard ELISAs. […] Prior to the addition of clonal phage. wells were incubated with blocking buffer and PSMA antigen or blocking buffer alone. Without washing or aspirating, clonal phage supernatants were then added to the wells and incubated for a short time. Wells were then washed followed by detection of bound phage using a horse radish conjugated anti-M13 antibody.

[2] = molecular target: T1, Anti-PSMA Fab; test: clonal phage ELISA; biotinylated PSMA Fab on neutravidin plate, wells pre-incubated with PSMA antigen as competitor; anti-M13 HRP detection;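 also: crude clonal phage supernatants added to antigen-treated wells without a wash, incubated briefly, then bound phage read out via horse radish–conjugated anti-M13 antibody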
Procedure: as §1

[3] = molecular target: T2, PSMA Fab (006 PSMA Fab) (biotinylated (site not stated)); test: clonal phage supernatant on biotinylated PSMA Fab captured on neutravidin plate, anti-M13-HRP detection;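 also: before phage were added, wells received PSMA antigen in blocking buffer or blocking buffer alone, with no wash in between, followed by a short phage incubation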
T2 construct: Biotinylated PSMA Fab captured on neutravidin coated plates in the phage ELISA; also called Anti-PSMA Fab; anti-PSMA Fab

[4] = molecular target: T2, PSMA Fab (006 PSMA Fab); test: clonal phage supernatant on captured PSMA Fab pre-incubated with the competitor PSMA antigen, anti-M13-HRP detection
Procedure: as §1

[5] = molecular target: T3, PSMA Fab (006 PSMA Fab) (biotinylated (site not stated)); test: clonal phage ELISA on captured PSMA Fab, wells pre-incubated with PSMA antigen as competitor
T3 construct: also called Anti-PSMA Fab

[6] = molecular target: T3, PSMA Fab (006 PSMA Fab); test: clonal phage ELISA on biotinylated PSMA Fab captured on neutravidin plates, anti-M13 HRP detection;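 also: crude clonal phage supernatants tested, before phage were added, wells were pretreated with PSMA antigen in blocking buffer or with blocking buffer only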
Procedure: as §1

[7] = molecular target: T4, PSMA Fab (006 PSMA Fab); test: clonal phage ELISA on captured PSMA Fab pre-incubated with PSMA antigen as competitor;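 also: crude clonal phage supernatants added to wells without washing away the PSMA competitor, bound phage detected by HRP-conjugated anti-M13 antibody, reference wells received blocking buffer only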
T4 construct: also called Anti-PSMA Fab
Procedure: as §1

[8] = molecular target: T4, PSMA Fab (006 PSMA Fab); test: clonal phage ELISA on biotinylated PSMA Fab captured on neutravidin plates, anti-M13 HRP detection;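 also: crude clonal phage supernatants tested, before phage were added, wells were pretreated with PSMA antigen in blocking buffer or with blocking buffer only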
Procedure: as §1

Row | Binder | Phage binding ELISA signal, Anti-PSMA Fab [1] | Phage binding ELISA signal, Anti-PSMA Fab in presence of PSMA [2] | Phage binding ELISA signal, Anti-PSMA Fab with PSMA antigen [7] | Phage binding ELISA signal, Anti-PSMA Fab [8] | further results
1 | DVPYCIPSWMCHGF [Phage-3698] | 1.45 | 0.249 |  |  | 
2 | EVLLCKPSWMCDGF (not shown: pIII filament protein of the bacteriophage) [Phage-3701] |  |  |  |  | Phage binding ELISA signal, Anti-PSMA Fab [3]: 1.44; Phage binding ELISA signal, Anti-PSMA Fab in presence of PSMA antigen [4]: 0.185
3 | ISIKCEPQWMCDGL [Phage-3671 (peptide-180 library clone)] |  |  |  |  | Phage binding ELISA signal, Anti-PSMA Fab in presence of PSMA [5]: 0.307; Phage binding ELISA signal, Anti-PSMA Fab [6]: 1.48
4 | IAFRCVPEWMCSAF (cysteine pairing not given here; also: displayed on phage as pIII fusion, not shown: pIII filament protein of the bacteriophage) [Phage-3711] |  |  |  |  | Phage binding ELISA signal, Anti-PSMA Fab [3]: 1.43; Phage binding ELISA signal, Anti-PSMA Fab in presence of PSMA antigen [4]: 0.07
5 | NEKLCVPTWMCDGL [Phage-3697] | 1.45 | 0.0612 |  |  | 
6 | VVVQCVPKWMCYGF [Phage-3688] | 1.47 | 0.0764 |  |  | 
7 | ALSMCVPQWMCQGF [Phage-3690] | 1.46 | 0.0597 |  |  | 
8 | MSMSCVPLWMCSGF (not shown: pIII filament protein of the bacteriophage) [Phage-3705] |  |  |  |  | Phage binding ELISA signal, Anti-PSMA Fab [3]: 1.43; Phage binding ELISA signal, Anti-PSMA Fab in presence of PSMA antigen [4]: 0.0698
9 | VIPKCEPKWMCHSL [Phage-3678] |  |  | 0.0649 | 1.48 | 
10 | ADMRCVPDWMCHGF [Phage-3686] |  |  | 0.0874 | 1.47 | 
11 | VNERCIPDWMCVGF [Phage-3691] | 1.46 | 0.0649 |  |  | 
12 | SQHSCIPSWMCNGF [Phage-3695] | 1.45 | 0.154 |  |  | 
13 | DAMMCKPTWMCDGF [Phage-3675] |  |  | 0.0662 | 1.48 | 
14 | SEHYCVPNWMCAGL [Phage-3693] | 1.46 | 0.0995 |  |  | 
15 | PEARCIPMWMCERL [Phage-3676] |  |  | 0.0885 | 1.48 | 
16 | LPHACKPSWMCQGF [Phage-3689] | 1.47 | 0.0636 |  |  | 
17 | EGRYCVPDWMCLGL (cysteine pairing not given here; also: displayed on phage as pIII fusion, not shown: pIII filament protein of the bacteriophage) [Phage-3710] |  |  |  |  | Phage binding ELISA signal, Anti-PSMA Fab [3]: 1.43; Phage binding ELISA signal, Anti-PSMA Fab in presence of PSMA antigen [4]: 0.0705
18 | LVKHCVPDWMCSGF [Phage-3677] |  |  | 0.101 | 1.48 | 
19 | TVPRCVPAWMCNWS [Phage-3694] | 1.45 | 0.0917 |  |  | 
20 | DERMCRPAWMCEGL [Phage-3682] |  |  | 0.102 | 1.47 | 
21 | PHVVCIPEWMCAGF [Phage-3681] |  |  | 0.068 | 1.47 | 
22 | YTVQCVPTWMCAGL [Phage-3680] |  |  | 0.0609 | 1.47 | 

Row | Binder | Phage binding ELISA signal, Anti-PSMA Fab [1] | Phage binding ELISA signal, Anti-PSMA Fab in presence of PSMA [2] | Phage binding ELISA signal, Anti-PSMA Fab with PSMA antigen [7] | Phage binding ELISA signal, Anti-PSMA Fab [8] | further results
23 | DHMMCVPPWMCDGI [Phage-3692] | 1.46 | 0.119 |  |  | 
24 | VDHMCKPMWMCNGF (not shown: pIII filament protein of the bacteriophage) [Phage-3707] |  |  |  |  | Phage binding ELISA signal, Anti-PSMA Fab [3]: 1.43; Phage binding ELISA signal, Anti-PSMA Fab in presence of PSMA antigen [4]: 0.0673
25 | GTMKCEPAWMCEGF [Phage-3674] |  |  | 0.106 | 1.48 | 
26 | MIKMCKPYWMCEAM [Phage-3679] |  |  | 0.0794 | 1.48 | 
27 | ERPACVPMWMCTGL [Phage-3684] |  |  | 0.0929 | 1.47 | 
28 | PELRCHPPWMCTGF [Phage-3670 (peptide-180 library clone)] |  |  |  |  | Phage binding ELISA signal, Anti-PSMA Fab in presence of PSMA [5]: 0.0997; Phage binding ELISA signal, Anti-PSMA Fab [6]: 1.49
29 | PGALCVPFWMCQGF (not shown: pIII filament protein of the bacteriophage) [Phage-3702] |  |  |  |  | Phage binding ELISA signal, Anti-PSMA Fab [3]: 1.44; Phage binding ELISA signal, Anti-PSMA Fab in presence of PSMA antigen [4]: 0.108
30 | STSWCSPPWMCEGF [Phage-3683] |  |  | 0.0631 | 1.47 | 
31 | GDVRCVPSWMCEGY (not shown: pIII filament protein of the bacteriophage) [Phage-3704] |  |  |  |  | Phage binding ELISA signal, Anti-PSMA Fab [3]: 1.43; Phage binding ELISA signal, Anti-PSMA Fab in presence of PSMA antigen [4]: 0.0816
32 | TMQMCKPAWMCSQL [Phage-3696] | 1.45 | 0.0765 |  |  | 
33 | EHIRCQPSWMCWGF (cysteine pairing not given here; also: displayed on phage as pIII fusion, not shown: pIII filament protein of the bacteriophage) [Phage-3709] |  |  |  |  | Phage binding ELISA signal, Anti-PSMA Fab [3]: 1.43; Phage binding ELISA signal, Anti-PSMA Fab in presence of PSMA antigen [4]: 0.128
34 | EMSLCIPAWMCSVF [Phage-3685] |  |  | 0.0677 | 1.47 | 
35 | LGKICSPAWMCSGF [Phage-3673] |  |  | 0.0608 | 1.48 | 
36 | EIPLCRPEWMCTGL (not shown: pIII filament protein of the bacteriophage) [Phage-3706] |  |  |  |  | Phage binding ELISA signal, Anti-PSMA Fab [3]: 1.43; Phage binding ELISA signal, Anti-PSMA Fab in presence of PSMA antigen [4]: 0.126
37 | TDRVCTPAWMCQGL (not shown: pIII filament protein of the bacteriophage) [Phage-3708] |  |  |  |  | Phage binding ELISA signal, Anti-PSMA Fab [3]: 1.43; Phage binding ELISA signal, Anti-PSMA Fab in presence of PSMA antigen [4]: 0.0772
38 | MIAMCKPPWMCIGL [Phage-3687] | 1.47 | 0.0954 |  |  | 
39 | EVWMCRPSWMCDGF (cysteine pairing not given here; also: displayed on phage as pIII fusion, not shown: pIII filament protein of the bacteriophage) [Phage-3712] |  |  |  |  | Phage binding ELISA signal, Anti-PSMA Fab [3]: 1.43; Phage binding ELISA signal, Anti-PSMA Fab in presence of PSMA antigen [4]: 0.0717
40 | AAKYCEPSWMCYGF [Phage-3672 (peptide-180 library clone)] |  |  |  |  | Phage binding ELISA signal, Anti-PSMA Fab in presence of PSMA [5]: 0.105; Phage binding ELISA signal, Anti-PSMA Fab [6]: 1.48
41 | VPRMCIPHWMCEGI (not shown: pIII filament protein of the bacteriophage) [Phage-3703] |  |  |  |  | Phage binding ELISA signal, Anti-PSMA Fab [3]: 1.43; Phage binding ELISA signal, Anti-PSMA Fab in presence of PSMA antigen [4]: 0.0731
42 | YLHECRPEWMCVGF [Phage-3699] | 1.45 | 0.153 |  |  | 
43 | GLPYCVPSWMCDGF [Phage-3700] | 1.44 | 0.0858 |  |  | 
